Columns and labels:
active TGFβ1 [1] = molecular target: T1, active TGFβ1 (human, UniProt P01137 279-390); test: cell-based or functional assay
T1 construct: mature; also called TGFb1; human active TGFβ1

active TGFβ3 = active TGFβ3 (UniProt P10600); test: blocking of active TGFβ3 (1 ng/mL) in solution, 30 min in PBS; free TGFβ3 by ELISA
active TGFβ1 [2] = molecular target: T1, active TGFβ1; test: blocking of active TGFβ1 (1 ng/mL) in solution, 30 min in PBS; free TGFβ1 by ELISA

T1 sequence (P01137 279-390 limits assumed): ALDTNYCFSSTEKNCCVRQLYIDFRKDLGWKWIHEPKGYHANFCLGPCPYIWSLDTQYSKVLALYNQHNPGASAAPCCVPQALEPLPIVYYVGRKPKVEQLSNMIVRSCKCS
active TGFβ3, sequence (P10600 301-412): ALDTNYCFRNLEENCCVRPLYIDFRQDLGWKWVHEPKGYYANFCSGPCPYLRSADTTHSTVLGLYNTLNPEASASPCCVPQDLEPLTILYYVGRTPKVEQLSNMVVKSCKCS

| Molecule | IC50 values for the inhibition of TGFb1-dependent suppression of CTLL-2 cell proliferation (active TGFβ1 [1]) | IC50 (active TGFβ3) [nM] | IC50 (active TGFβ1 [2]) [nM] |
| --- | --- | --- | --- |
| FIST (monovalent FIST; fusion protein of an IL-2 polypeptide and a single sTBRII receptor polypeptide) | 0.12 | 3.6 | 1.29 |
| sTBRII isoform 2 (long) (receptor, UniProt P37173-2 23-191, looked up, also called TbRII (isoform II); TβRII isoform 2) TIPPHVQKSDVEMEAQKDEIICPSCNRTAHPLRHINNDMIVTDNNGAVKFPQLCKFCDVRFSTCDNQKSCMSNCSITSICEKPQEVCVAVWRKNDENITLETVCHDPKLPYHDFILEDAASPKCIMKEKKKPGETFFMCSCSSDECNDNIIFSEEYNTSNPDLLLVIFQ |  |  | 0.02 |

Reference: US20220127332A1 (CURA THERAPEUTICS, published 2022)
